{"source": "paper PMC9256704", "about": "“Oncogenic TRIB2 interacts with and regulates PKM2 to promote aerobic glycolysis and lung cancer cell procession” (Cell Death Discovery, 2022)", "biological_target": "T1, PKM2 (ab89364, Abcam) (human, UniProt P14618 1-531)", "T1 construct": "human M2 isoform of pyruvate kinase (PKM2), bought recombinant protein; see the vendor's sheet for ab89364; also called PKM2 protein; source: bought: Abcam (ab89364)", "T1 sequence (P14618 whole entry, canonical isoform)": "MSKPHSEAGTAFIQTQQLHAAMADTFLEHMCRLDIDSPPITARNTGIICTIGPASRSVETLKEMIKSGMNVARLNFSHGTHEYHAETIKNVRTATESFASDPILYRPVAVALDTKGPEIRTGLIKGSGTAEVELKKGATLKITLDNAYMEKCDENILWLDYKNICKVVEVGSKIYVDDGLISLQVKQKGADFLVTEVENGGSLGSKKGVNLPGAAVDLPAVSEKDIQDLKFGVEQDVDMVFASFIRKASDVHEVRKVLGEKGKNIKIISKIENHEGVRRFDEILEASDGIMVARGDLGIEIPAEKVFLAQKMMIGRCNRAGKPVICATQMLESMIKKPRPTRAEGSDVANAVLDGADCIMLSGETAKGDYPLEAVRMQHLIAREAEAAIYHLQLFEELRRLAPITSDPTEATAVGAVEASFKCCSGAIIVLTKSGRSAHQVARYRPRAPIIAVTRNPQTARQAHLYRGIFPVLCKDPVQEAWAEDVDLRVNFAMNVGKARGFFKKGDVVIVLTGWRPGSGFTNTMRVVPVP", "assay": "BLI; biotinylated TRIB2 loaded onto SSA biosensors, blocked with biocytin (5 μg/ml) for 60 s; PKM2 diluted in PBS as analyte; Octet data analysis software", "conditions": "both partners purified"}
{"binder": "recombinant TRIB2 protein (TP301210, OriGene), biotinylated (natural protein, human, UniProt Q92519 1-343, looked up, biotinylated, human Tribbles homologue 2 (TRIB2), bought recombinant protein; also called human TRIB2; source: bought: OriGene (TP301210)) MNIHRSTPITIARYGRSRNKTQDFEELSSIRSAEPSQSFSPNLGSPSPPETPNLSHCVSCIGKYLLLEPLEGDHVFRAVHLHSGEELVCKVFDISCYQESLAPCFCLSAHSNINQITEIILGETKAYVFFERSYGDMHSFVRTCKKLREEEAARLFYQIASAVAHCHDGGLVLRDLKLRKFIFKDEERTRVKLESLEDAYILRGDDDSLSDKHGCPAYVSPEILNTSGSYSGKAADVWSLGVMLYTMLVGRYPFHDIEPSSLFSKIRRGQFNIPETLSPKAKCLIRSILRREPSERLTSQEILDHPWFSTDFSVSNSAYGAKEVSDQLVPDVNMEENLDPFFN", "values": [{"measurement": "Kd", "value": 7.44, "unit": "nM"}]}
